Results as given in PMC9750922, “Improvement of thermoalkaliphilic laccase (CtLac) by a directed evolution and application to lignin degradation” (Applied Microbiology and Biotechnology, 2022).
Where a chain is given by its changes, count along the chain named. In names and notes the source's numbering stands.

B1: CtLac (Caldalkalibacillus thermarum TA2.A1) (protein)
chain: MKRILTLVLLLTVFIIVLVGCSTSPVDHSKMVHGEDDSTDNKQQEETQQIETSEGKVVINLEAKVTHWMFNNDLMEDIWTYNGSLPGQEIRVQEGDHVVINLTNSLDVPTSLHLHGVPVPNEMDGVPGVTQNAIMPGETFTYEFVADTPGTYWYHSHQDGANQIGMGLYGALVVEHKDQPDYDLDQVIMIDEWSSMGMADMDHSGMDHGDHGNMGDNSDQPPHAEMMNMMYDTLIVNGKASPVIEAIGVSEDDTIKLRFVNTGLFTQVITIPGHEFKVTHYDGQQVNEPELISDTAIRIAPAERYDVEIEMNQPGAWGIQIYAEENENLRGIVPLVYAGFEDEELQTADSIQSFLDISAYGSPMNVNFGEITKEFDMILGSDDGGETFTINGKQMTTKGFESHEDHEIYEVEEGDVVKVNIVNDTDVDHPMHLHGHFFYVVSRNGQPVKGSPILKETLNVRPNEAYEIVFVADNPGHWMFHCHELHHASGGMVSEVRYSGYTPAFTPDPNIPNKPE
notes: 516 aa, full-length gene incl; N-terminal region in pET28a(+) (NdeI/XhoI), His-tagged, E. coli BL21(DE3), HisTrap purified; primers encode N-terminus MKRILTLVL and C-terminus IPNKPE
B2: CtLac (Caldalkalibacillus thermarum TA2.A1; V243M) (protein)
chain: B1 chain with V243M
notes: as for B1
B3: CtLac (Caldalkalibacillus thermarum TA2.A1; V243D) (protein)
chain: B1 chain with V243D
notes: as for B1

Substrate: COc1cccc(OC)c1O
Assay: purified protein
Type: biochemical, Caldalkalibacillus thermarum
Conditions: 25 °C, pH 8.0, citrate phosphate buffer 50 mM, 1 mM CuCl2, air O2

First: B1
Second: B2
The Km of the first is 4.3-fold lower: 157.2 µM for the first, 674.2 µM for the second.

B3 was tested, and the Km was 137.2 µM.

Going from B1 to B2, the kcat falls from 1.1 s⁻¹ to 0.1 s⁻¹ (11-fold).

Work on B3 yielded a kcat of 2.7 s⁻¹.

Compared with B1, B2 is 70-fold lower in kcat/Km: 7000 M⁻¹ s⁻¹ for the first, 100 M⁻¹ s⁻¹ for the second.

With B3 the kcat/Km was 20000 M⁻¹ s⁻¹.
